The assay addresses FASN of the SPR analysis (UniProt P49327 1-2511). As to the kind of experiment: SPR.

B1: TRIM56 of the SPR analysis (enzyme)
chain: MVSHGSSPSLLEALSSDFLACKICLEQLRAPKTLPCLHTYCQDCLAQLADGGRVRCPECRETVPVPPEGVASFKTNFFVNGLLDLVKARACGDLRAGKPACALCPLVGGTSTGGPATARCLDCADDLCQACADGHRCTRQTHTHRVVDLVGYRAGWYDEEARERQAAQCPQHPGEALRFLCQPCSQLLCRECRLDPHLDHPCLPLAEAVRARRPGLEGLLAGVDNNLVELEAARRVEKEALARLREQAARVGTQVEEAAEGVLRALLAQKQEVLGQLRAHVEAAEEAARERLAELEGREQVARAAAAFARRVLSLGREAEILSLEGAIAQRLRQLQGCPWAPGPAPCLLPQLELHPGLLDKNCHLLRLSFEEQQPQKDGGKDGAGTQGGEESQSRREDEPKTERQGGVQPQAGDGAQTPKEEKAQTTREEGAQTLEEDRAQTPHEDGGPQPHRGGRPNKKKKFKGRLKSISREPSPALGPNLDGSGLLPRPIFYCSFPTRMPGDKRSPRITGLCPFGPREILVADEQNRALKRFSLNGDYKGTVPVPEGCSPCSVAALQSAVAFSASARLYLINPNGEVQWRRALSLSQASHAVAALPSGDRVAVSVAGHVEVYNMEGSLATRFIPGGKASRGLRALVFLTTSPQGHFVGSDWQQNSVVICDGLGQVVGEYKGPGLHGCQPGSVSVDKKGYIFLTLREVNKVVILDPKGSLLGDFLTAYHGLEKPRVTTMVDGRYLVVSLSNGTIHIFRVRSPDS
B1 came in with a dissociation constant Kd of 17 nM.

The values are drawn from article PMC10904058 (2024).
